Results from PMC9352680, “A comprehensive thermodynamic model for RNA binding by the Saccharomyces cerevisiae Pumilio protein PUF4”.
Residue numbers refer to the chain shown, from its start. Numbers in names are those of the source.

B1: Ie_S2_P4E.1_K4.1_C4.1_H4.1_[+4CTCTC]_A4.1_F4.1_T4.1 (ssRNA)
RNA: UUUGAUUAAUAUGAUAUCGUUCUUUCUUGUACUCUCUAUUAUUCUUUCUCGAUAUCAUAUUAAUCUUU
B2: Ie_S2_P4E.1_K4.1_C4.1_H4.1_[+4TCTCT]_A4.1_F4.1_T4.1 (ssRNA)
RNA: B1 RNA with C32U, U33C, C34U, U35C, C36U
B3: Ie_S2_P4E.1_K4.1_C4.1_H4.1_[+4CCTCT]_A4.1_F4.1_T4.1 (ssRNA)
RNA: B1 RNA with U33C, C34U, U35C, C36U
B4: Ie_S2_P4E.1_K4.1_C4.1_H4.1_[+4TTCCT]_A4.1_F4.1_T4.1 (ssRNA)
RNA: B1 RNA with C32U, U35C, C36U
B5: Ie_S2_P4E.1_K4.1_C4.1_H4.1_[+4CCCTT]_A4.1_F4.1_T4.1 (ssRNA)
RNA: B1 RNA with U33C, C36U
B6: Ib_S2_P3E.1_K3.1_C3.1_H3.1_A3.1_[A6T]_F3.1_[A8C]_T3.1 (ssRNA)
RNA: UUUGAUUAAUAUGAUAUCGUUCUUUCUUGUAUUUCUUCUUUCUCGAUAUCAUAUUAAUCUUU
B7: Ie_S2_P4E.1_K4.1_C4.1_H4.1_A4.1_[+5CC]_F4.1_T4.1 (ssRNA)
RNA: UUUGAUUAAUAUGAUAUCGUUCUUUCUUGUAUCCAUUAUUCUUUCUCGAUAUCAUAUUAAUCUUU
B8: Ie_S2_P5E.1_K5.1_C5.1_H5.1_A5.1_[+6C]_F5.1_T5.1 (ssRNA)
RNA: B7 RNA with C33U
B9: Ie_S2_P4E.1_K4.1_C4.1_H4.1_A4.1_[+5CTC]_F4.1_T4.1 (ssRNA)
RNA: UUUGAUUAAUAUGAUAUCGUUCUUUCUUGUAUCUCAUUAUUCUUUCUCGAUAUCAUAUUAAUCUUU
B10: Ie_S2_P4E.1_K4.1_C4.1_H4.1_A4.1_[+5TCC]_F4.1_T4.1 (ssRNA)
RNA: B9 RNA with C33U, U34C
B11: Ie_S2_P4E.1_K4.1_C4.1_H4.1_A4.1_[+5TTC]_F4.1_T4.1 (ssRNA)
RNA: B9 RNA with C33U
B12: Ie_S2_P5E.1_K5.1_C5.1_H5.1_A5.1_[+6CTC]_F5.1_T5.1 (ssRNA)
RNA: UUUGAUUAAUAUGAUAUCGUUCUUUCUUGUAUUCUCAUUAUUCUUUCUCGAUAUCAUAUUAAUCUUU
B13: Ie_S2_P4E.1_K4.1_C4.1_H4.1_A4.1_[+5TTCC]_F4.1_T4.1 (ssRNA)
RNA: B12 RNA with C34U, U35C
B14: Ie_S2_P4E.1_K4.1_C4.1_H4.1_A4.1_[+5TCTCT]_F4.1_T4.1 (ssRNA)
RNA: B1 RNA with C32U
B15: Ie_S2_P5E.1_K5.1_C5.1_H5.1_A5.1_[+5CCTC]_F5.1_T5.1 (ssRNA)
RNA: B1 RNA with C32U, U33C
B16: Ie_S2_P5E.1_K5.1_C5.1_H5.1_A5.1_[+5TTCC]_F5.1_T5.1 (ssRNA)
RNA: B1 RNA with C32U, C34U, U35C
B17: Ib_S2_P3E.1_K3.1_C3.1_H3.1_A3.1_[A6G]_F3.1_[A8T]_T3.1 (ssRNA)
RNA: B6 RNA with U33G, C35U
B18: Ie_S2_P5E.1_K5.1_C5.1_H5.1_A5.1_[+5CCCT]_F5.1_T5.1 (ssRNA)
RNA: B1 RNA with C32U, U33C, U35C, C36U
B19: Ie_S2_P4E.1_K4.1_C4.1_H4.1_A4.1_[+6CT]_F4.1_T4.1 (ssRNA)
RNA: B7 RNA with C33A, A35U
B20: Ie_S2_P4E.1_K4.1_C4.1_H4.1_A4.1_[+6TC]_F4.1_T4.1 (ssRNA)
RNA: B7 RNA with C33A, C34U, A35C
B21: Ie_S2_P4E.1_K4.1_C4.1_H4.1_A4.1_[+7TT]_F4.1_T4.1 (ssRNA)
RNA: B7 RNA with C33A, C34U, A35U
B22: Ie_S2_P4E.1_K4.1_C4.1_H4.1_A4.1_[+6CCT]_F4.1_T4.1 (ssRNA)
RNA: B9 RNA with C33A, U34C, A36U
B23: Ie_S2_P4E.1_K4.1_C4.1_H4.1_A4.1_[+7CCT]_F4.1_T4.1 (ssRNA)
RNA: B9 RNA with C33A, A36C
B24: Ie_S2_P4E.1_K4.1_C4.1_H4.1_A4.1_F4.1_[+8CTT]_T4.1 (ssRNA)
RNA: B9 RNA with C33A, C35U, A36C
B25: Ie_S2_P4E.1_K4.1_C4.1_H4.1_A4.1_[+6TTT]_F4.1_T4.1 (ssRNA)
RNA: B9 RNA with C33A, C35U, A36U
B26: Ie_S2_P4E.1_K4.1_C4.1_H4.1_A4.1_[+6CTCT]_F4.1_T4.1 (ssRNA)
RNA: B12 RNA with U33A, A37U
B27: Ie_S2_P4E.1_K4.1_C4.1_H4.1_A4.1_[+7CTCT]_F4.1_T4.1 (ssRNA)
RNA: B12 RNA with U33A, C34U, U35C, C36U, A37C
B28: Ic_S2_P3E.1_K3.1_C3.1_H3.1_A3.1_[A6C]_F3.1_[A8T]_T3.1 (ssRNA)
RNA: B6 RNA with U33C, C35U
B29: Ie_S2_P4E.1_K4.1_C4.1_H4.1_A4.1_[+6CCTC]_F4.1_T4.1 (ssRNA)
RNA: B12 RNA with U33A, U35C, C36U, A37C
B30: Ie_S2_P4E.1_K4.1_C4.1_H4.1_A4.1_[+6CCCT]_F4.1_T4.1 (ssRNA)
RNA: B12 RNA with U33A, U35C, A37U
B31: Ie_S2_P4E.1_K4.1_C4.1_H4.1_A4.1_[+6CTCTC]_F4.1_T4.1 (ssRNA)
RNA: B1 RNA with C32U, U33A, A38C
B32: Ie_S2_P4E.1_K4.1_C4.1_H4.1_A4.1_[+6CCCTT]_F4.1_T4.1 (ssRNA)
RNA: B1 RNA with C32U, U33A, U35C, A38U
B33: Ie_S2_P4E.1_K4.1_C4.1_H4.1_A4.1_[+7CC]_F4.1_T4.1 (ssRNA)
RNA: B7 RNA with C33A, C34U, A35C, U36C
B34: Ie_S2_P4E.1_K4.1_C4.1_H4.1_A4.1_F4.1_[+8CT]_T4.1 (ssRNA)
RNA: B7 RNA with C33A, C34U, A35U, U36C
B35: Ie_S2_P4E.1_K4.1_C4.1_H4.1_A4.1_[+7CCC]_F4.1_T4.1 (ssRNA)
RNA: B9 RNA with C33A, A36C, U37C
B36: Ie_S2_P4E.1_K4.1_C4.1_H4.1_A4.1_[+7CTC]_F4.1_T4.1 (ssRNA)
RNA: B9 RNA with C33A, A36U, U37C
B37: Ie_S2_P4E.1_K4.1_C4.1_H4.1_A4.1_F4.1_[+8CCT]_T4.1 (ssRNA)
RNA: B9 RNA with C33A, C35U, A36C, U37C
B38: Ie_S2_P4E.1_K4.1_C4.1_H4.1_A4.1_F4.1_[+8CTCT]_T4.1 (ssRNA)
RNA: B12 RNA with U33A, C34U, A37U, U38C
B39: Ib_S2_P3E.1_K3.1_C3.1_H3.1_A3.1_[A6T]_F3.1_[A8T]_T3.1 (ssRNA)
RNA: B6 RNA with C35U
B40: Ie_S2_P4E.1_K4.1_C4.1_H4.1_A4.1_[+7CCTC]_F4.1_T4.1 (ssRNA)
RNA: B12 RNA with U33A, C34U, U35C, A37U, U38C

Target: T1, PUF4 RNA-binding domain (Saccharomyces cerevisiae, UniProt P25339 537-888)
T1 sequence: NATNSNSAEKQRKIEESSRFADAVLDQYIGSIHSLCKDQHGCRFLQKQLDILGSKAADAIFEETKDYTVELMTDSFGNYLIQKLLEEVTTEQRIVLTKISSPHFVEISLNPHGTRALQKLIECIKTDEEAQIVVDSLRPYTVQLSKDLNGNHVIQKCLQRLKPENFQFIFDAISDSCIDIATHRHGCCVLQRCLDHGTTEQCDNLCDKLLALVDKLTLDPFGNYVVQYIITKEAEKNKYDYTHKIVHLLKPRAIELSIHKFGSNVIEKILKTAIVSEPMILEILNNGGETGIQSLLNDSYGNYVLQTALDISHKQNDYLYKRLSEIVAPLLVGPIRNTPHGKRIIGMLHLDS
Experiment: Mg; RNA-MaP; 20 mM Na-HEPES pH 7.4, 30 mM KOAc, 0.75 mM MgCl2, 0.1% Tween-20, 5% glycerol, 0.1 mg/mL BSA, 2 mM DTT; 25 C; 0.0125-409.6 nM protein
Conditions: tags: N-His6-TEV cleaved; C-SNAP kept, Cy3B-labelled; label: tethered on chip by stalled RNA polymerase

Binder	Kd
B1	6.5 nM
B2	7.16 nM
B3	5.57 nM
B4	8 nM
B5	5.28 nM
B6	29.3 nM
B7	20.2 nM
B8	25.6 nM
B9	26.1 nM
B10	46.4 nM
B11	29.9 nM
B12	18.7 nM
B13	47.7 nM
B14	7.74 nM
B15	10.2 nM
B16	7.16 nM
B17	22.5 nM
B18	11.9 nM
B19	3.75 nM
B20	4.55 nM

Binder	Kd
B21	2.3 nM
B22	12.7 nM
B23	10.6 nM
B24	4.6 nM
B25	3.88 nM
B26	6.3 nM
B27	12.8 nM
B28	9.3 nM
B29	14.8 nM
B30	26.5 nM
B31	6.56 nM
B32	20.8 nM
B33	11.7 nM
B34	3.57 nM
B35	13.5 nM
B36	8.21 nM
B37	3.9 nM
B38	4.74 nM
B39	10.5 nM
B40	12.2 nM
